Measured values: patent publication US20070117966A1

Target: purified αvβ3 integrin (human) (UniProt P06756)
Experiment: competition ELISA on αvβ3 coated wells; competitor: biotinylated FNfn10-3JCLI4 at 800 pM; no inhibition at the highest concentration

- IC50: > 80 nM
Substance: wild-type FNfn10 (FNfn10-WT), purified protein (from UniProt P02751 1538-1631)
